Source: patent publication US20260275319A1, “ARCHAEAL PEPTIDE RECOMBINASE – A NOVEL PEPTIDE LIGATING ENZYME” (MAX-PLANCK-GESELLSCHAFT ZUR FÖRDERUNG DER WISSENSCHAFTEN …, priority 2019, published 2026)
Positions count from the first letter of the chain named. In names and notes the source's numbering stands. Several values for one entry are separate records, joined by “and”; a condition that tells them apart may be missing. Equal entries are not always repeated. Where two headings read alike, the source gives them in different places.

Legend:
[1] = target: M. jannaschii MtrA^Δ194-245 (Methanocaldococcus jannaschii, UniProt Q58261); settings: 1:1 molar mixture, 200 μM, Superdex S200, light scattering
Protocol: Data analysis was carried out with ASTRA v7.3.0.18 software (Wyatt).
For this purpose, size exclusion chromatography using 50 μl 200 μM M. jannaschii Adriase^ΔOB (SEQ ID NO: 132), M. jannaschii MtrA^Δ194-245 (SEQ ID NO:420) or a 1:1 molar mixture of the Adriase-MtrA pair was analyzed using a Superdex S200 10/300 GL gel size-exclusion column (20 mM HEPES-NaOH pH 7.5, 50 mM NaCl, 100 mM KCl) coupled to a miniDAWN Tristar Laser photometer (Wyatt).
To investigate, whether the OB fold alone is sufficient to bind Adriase in the above experimental set-up, we repeated the same analysis using M. jannaschii Adriase^ΔNTN (SEQ ID NO: 519). Specifically, size exclusion chromatography using 50 μl 200 μM M. jannaschii Adriase^ΔNTN (SEQ ID NO: 519), M. jannaschii MtrA^Δ194-245 (SEQ ID NO:420) or a 1:1 molar mixture of the Adriase-MtrA pair was analyzed using a Superdex S200 10/300 GL gel size-exclusion column (20 mM HEPES-NaOH pH 7.5, 50 mM NaCl, 100 mM KCl) coupled to a miniDAWN Tristar Laser photometer (Wyatt).

[2] = tested on: (15)KDPGA(10) and PGA(10F) substrates; settings: FIG. 14
Protocol: Specifically, 15 μM of (15)KDPGA(10)(SEQ ID NO: 419) and 15 μM of fluorophore-coupled PGA(10F)(SEQ ID NO: 374) substrates were incubated optimized M. jannaschii Adriase buffer (20 mM MES-NaOH pH 5.8, 150 mM NaCl, 100 mM KCl, 5 mM TCEP-HCl) for 8 min at 80° C. with either various Adriase concentrations. The assay was performed with either 7 nM, 21 nM, 62 nM, 185 nM, 556 nM, 1666 nM, 5000 nM or 15000 nM N-terminally modified Adriase (N-His, SEQ ID NO: 450) or 0 nM, 7 nM, 21 nM or 62 nM unmodified Adriase (SEQ ID NO: 385) and stopped by addition of 2% SDS. Samples were then separated on 12% polyacrylamide gels (Thermo) and fluorescent products visualized by UV light.

[3] = tested on: (5)KDPGA(10F) and PGA(10) substrates; test: M. mazei Adriase peptide-peptide ligation time courses and Michaelis-Menten plot; type: biochemical; settings: 50° C.
Excerpt: The band intensity of the respective fluorescently labeled PGA(10F) peptides (SEQ ID NO: 455), which were released by the ligation reactions were quantified using ImageJ v1.50i and subtracted from background signal in control reactions without PGA(10) peptides.

[4] = tested on: Ub-(5)KDPGA(10) and PGA(10)-sdAb/CyP/GST; test: Ligation of unrelated protein substrates (sdAb, CyP, GST); type: biochemical, M. mazei; settings: 0.9 μM enzyme, 3.7 μM substrates, 37° C., 10 min
[5] = tested on: (15)KDPGA(10) and PGA(10F) substrates; settings: 100 nM enzyme, 15 μM substrates, 8 min, 85° C. (M. jannaschii variants) or 50° C. (M. mazei)
Protocol: In a second set of experiments, the ligase activity of Adriase variants was tested with (15)KDPGA(10)(SEQ ID NO: 419) and PGA(10F)(SEQ ID NO:414) substrates. […] Furthermore, M. mazei Adriase (SEQ ID NO: 380) was tested for ligase activity with the same M. jannaschii peptide substrates to assess whether variety within the recognition motif is tolerated. The read out for Adriase activity was the detection of fluorescently labeled ligation product (10)KDPGA(10F)(SEQ ID NO: 418).
The reaction was performed in optimized M. jannaschii Adriase buffer (20 mM MES-NaOH pH 5.8, 150 mM NaCl, 100 mM KCl, 5 mM TCEP-HCl) for 8 min at 85° C. when M. jannaschii derived Adriase variants were used and at 50° C. in optimized M. mazei Adriase buffer (50 mM acetic acid, 50 mM MES, 50 mM HEPES, 100 mM NaCl, 50 mM KCl, 5 mM TCEP, pH 7.0) when M. mazei Adriase was used and stopped by addition of 2% SDS. Samples were then separated on 12% polyacrylamide gels (Thermo) and fluorescent products visualized by UV light.

[6] = tested on: Ub-(5)KDPGA(15) and PGA(15)-Ub substrates; test: M. mazei Adriase protein-protein ligation kinetics
Protocol: Specifically, different concentrations (0.39 μM, 0.78 μM, 1.56 μM, 3.13 μM, 6.25 μM, 12.5, 25, 50 or 100 μM; three independent experiments per concentration) of Ub-(5)KDPGA(15)(SEQ ID NO: 520) and PGA(15)-Ub (SEQ ID NO: 521) substrates were incubated with 0.0025 molar equivalents of M. mazei Adriase (SEQ ID NO: 380) in reaction buffer (50 mM acetic acid, 50 mM MES, 50 mM HEPES, 100 mM NaCl, 50 mM KCl, 5 mM TCEP, pH 7.0) at 50° C. At various time points (0 s, 28 s, 55 s, 88 s, 126 s, 171 s, 225 s, 295 s, 393 s, 554 s, 1125 s, 1670 s and 2250 s), an aliquot of the reaction was mixed with 2% SDS. Samples were then separated on 12% polyacrylamide gels (Thermo) and stained with Coomassie blue (FIG. 21A). The band intensities of educt and product bands were quantified using ImageJ v1.52a, assuming that all ubiquitin molecules bind the coomassie dye in a similar manner. The results were used to plot the time courses for each experiment (FIG. 21B).
the data fit for each time course allowed the determination of the maximum rate parameter for each concentration. These maximum rates were then used in a Michaelis-Menten plot (FIG. 21C) to approximate kinetic measures.

[7] = tested on: Ub-(5)KDPGA(15)-Strep and PGA(10); test: Test for hydrolase activity with protein substrate
Protocol: To investigate, whether this characteristic also holds true with protein substrates, the above experiment was repeated with Ub-(5)KDPGA(15)-Strep substrate (SEQ ID NO: 522). Specifically, 25 μM Ub-(5)KDPGA(15)-Strep and 25 μM PGA(10)(SEQ ID NO: 454) were incubated with either 25 nM or 25 μM M. mazei Adriase (SEQ ID NO: 380) in optimized buffer (50 mM acetic acid, 50 mM MES, 50 mM HEPES, 100 mM NaCl, 50 mM KCl, 5 mM TCEP, pH 7.0) at 50° C. After 140 s, 320 s, 575 s, 1002 s, 30 min or 90 min, aliquots were removed and mixed with 2% SDS to stop the reaction.

[8] = tested on: Ub-(5)KDPGA(15) and PGA(15)-Ub; test: Comparison with Sortase: Adriase-catalyzed protein-protein ligation
Protocol: (§1) (SEQ ID NO: 536) and GGG-Ub (SEQ ID NO: 666) were recorded. The Adriase assays were conducted with 3.13 μM and 100 μM substrate concentration and 0.0025 molar equivalents Adriase (SEQ ID NO: 380) in reaction buffer (50 mM acetic acid, 50 mM MES, 50 mM HEPES, 100 mM NaCl, 50 mM KCl, 5 mM TCEP, pH 7.0) at 50° C. The SrtA5* and SrtA assays were conducted with 3.13 μM and 100 μM substrate concentration and either 1 or 0.1 molar equivalents SrtA5* or SrtA (SEQ ID NO: 535 and 662) in Sortase buffer (50 mM Tris-HCl pH 7.5, 150 mM NaCl, 10 mM CaCl2) at 37° C. At various time points (0 s, 28 s, 55 s, 88 s, 126 s, 171 s, 225 s, 295 s, 393 s, 554 s, 1125 s, 1670 s and 2250 s), an aliquot of the reaction was mixed with 2% SDS. Samples were then separated on 12% polyacrylamide gels (Thermo) and stained with Coomassie blue. The band intensities of educt and product bands were quantified using ImageJ v1.52a, assuming that all ubiquitin molecules bind the coomassie dye in a similar manner. The results were used to plot the time courses for each experiment.

[9] = target: LPETG (primary) and GGG (secondary) substrates (Staphylococcus aureus, UniProt Q2FV99); settings: Frankel (2005); cited from earlier work
[10] = tested on: LPETG (primary) and GGG (secondary) substrates; settings: cited from earlier work
[11] = tested on: Ub-GGSLPETGGGHHHHHH and GGG-Ub; test: Comparison with Sortase: SrtA / SrtA5* catalyzed protein-protein ligation; settings: 3.13 μM each substrate, enzyme:substrate ratio 1:1, 37° C.
Protocol: as §1

M. jannaschii MtrA^Δ194-245, sequence (Q58261 1-189, stated change not applied): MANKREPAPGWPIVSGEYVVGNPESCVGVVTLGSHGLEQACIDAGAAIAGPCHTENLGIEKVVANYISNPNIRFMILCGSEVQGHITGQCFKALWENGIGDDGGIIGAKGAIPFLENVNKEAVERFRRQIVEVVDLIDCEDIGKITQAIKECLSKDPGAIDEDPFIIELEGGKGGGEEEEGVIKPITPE
LPETG (primary) and GGG (secondary) substrates (Staphylococcus aureus, UniProt Q2FV99), sequence (Q2FV99 60-206): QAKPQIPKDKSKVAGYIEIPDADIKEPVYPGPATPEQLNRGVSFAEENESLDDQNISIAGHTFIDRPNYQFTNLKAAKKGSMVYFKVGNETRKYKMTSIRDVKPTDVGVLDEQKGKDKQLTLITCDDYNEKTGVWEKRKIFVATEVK

B1: Adriase^ΔOB S1A (protein)
chain: ALIICYYGKNGAVIGGDRRQIFFRGSEENRKILEEKLYSGEIKSEEELYKLAEKLNIKIIIEDDREKVRKISDSVVCGEVRSLGIDAKRRRVYATKGKCAIVDILNDTVTNQTIKEGFGIVVLGNRFLKKKAEEELKRTAKLFPMMPIQQIEDAIKEIFEKLKWHPTVSKEYDIYSVNKYEKNFEEVIKKDIESLFKYREQGSHHHHHH
complex formation with MtrA [1]: decreased affinity

B2: M. jannaschii Adriase: Methanocaldococcus jannaschii Adriase (MJ_0548) with C-terminal His6-tag (protein)
chain: SLIICYYGKNGAVIGGDRRQIFFRGSEENRKILEEKLYSGEIKSEEELYKLAEKLNIKIIIEDDREKVRKISDSVVCGEVRSLGIDAKRRRVYATKGKCAIVDILNDTVTNQTIKEGFGIVVLGNRFLKKKAEEELKRTAKLFPMMPIQQIEDAIKEIFEKLKWHPTVSKEYDIYSVNKYEKNFEEVIKKDIESLFKYREQLRKQLIDFGKVMSIVNKIVKNGEIGVIKDGKLHLYDDYIAIDKIDPNPKVFKVVDVEGNFKDGDIVVIENGDMKIKGTNEKVTTKYIIIHKGSHHHHHH
modifications: C-terminal His6-tag; M. jannaschii Adriase with C-terminal His-tag
rate of product generation compared to N-terminally modified Adriase [2]: ~ 200 ×

B3: M. jannaschii Adriase^ΔNTN (protein, listed as Methanosarcina mazei)
chain: MEQLRKQLIDFGKVMSIVNKIVKNGEIGVIKDGKLHLYDDYIAIDKIDPNPKVFKVVDVEGNFKDGDIVVIENGDMKIKGTNEKVTTKYIIIHKGSHHHHHH
modifications: Methanosarcina mazei Go1; Adriase NTN with C-terminal His-tag
complex formation with MtrA [1]: no complex is formed

B4: M. mazei Adriase: Methanosarcina mazei Adriase (MM_2909), archaeal peptide recombinase, C-terminal His6-tag; Strep-, Myc-, HA-tagged versions used as pulldown bait (protein)
chain: TLVIAFIGKNGAVMAGDMREITFEGEKPDREKLEKELYSGSIVTDEEMQKKAEEFGVKITVADCKEKVSERNGVLVGEVSSAEGGVVKKRRLYASAGNFAIAELINTEMTLTSQGKGSNFIAFGNEFTKQVANKCFKDNWTKKSNLQDAVKILILCMETVARKTASVSKQFMIVQTASNADVLKVVEKDRNCGSHHHHHH
modifications: C-terminal His6-tag; M. mazei Adriase with C-terminal His-tag
notes: Methanosarcina mazei Adriase (MM_2909), archaeal peptide recombinase, C-terminal His6-tag; Strep-, Myc-, HA-tagged versions used as pulldown bait
maximum rate ([3]; 0.001 molar equivalents enzyme, pH 7.0, Michaelis-Menten model): ~ 2.25 ligations per enzyme and second | substrate concentration at half maximal reaction speed ([3]; each substrate, pH 7.0): ~ 9 μM | ligation of protein pairs [4]: efficiently ligates all three protein pairs | ligase activity (fluorescent ligation product) [5]: showed activity | ligation rate coefficient ([6]; 25 μM substrate concentration): 0.74 ± 0.05 s⁻¹ | ligation rate coefficient ([6]; 50 μM substrate concentration): 0.88 ± 0.07 s⁻¹ | ligation rate coefficient ([6]; 100 μM substrate concentration): 0.90 ± 0.14 s⁻¹ | substrate concentration at half-maximum rate ([6]; each substrate, equimolar, protein-protein ligation, 50° C., pH 7.0): 2.2 µM | maximum rate ([6]; protein-protein ligation, 0.0025 molar equivalents enzyme, 50° C., pH 7.0): 0.92 ligations per enzyme and second | product formation ([7]; enzyme:substrate 1:1000 (1×), 30 minutes): ~ 50% | amount of ligation product ([7]; prolonged incubation (90 min), 1000× increased Adriase concentration): ~ 50% | substrates ligated (on a molar basis) ([8]; 3.13 μM each substrate, enzyme:substrate ratio 1:400): ~ 50% | yield compared to Sortase ([8]; 100 μM substrates): ~ 1.7 × | ligase activity / ligation rate compared to SrtA5* ([8]; 100 μM substrates, Adriase 0.0025 molar equivalents, 50° C., SrtA5* 37° C.): ~ 40 × and > 40 × | ligase activity / ligation rate compared to SrtA ([8]; 100 μM substrates, Adriase 0.0025 molar equivalents, 50° C., SrtA 37° C.): ~ 4000 × and > 4000 × | ligation yield ([8]; compared to ~30% in the Sortase reactions): ~ 50%

B5: M. jannaschii Adriase^S1A (protein)
chain: B2 chain with S1A
modifications: C-terminal His-tag; M. jannaschii Adriase S1A mutant with C-terminal His-tag
complex formation with MtrA [1]: form a heterodimer | ligase activity (fluorescent ligation product) [5]: no ligation product is observed

B6: Adriase^ΔOB: M. jannaschii Adriase without OB-like domain (Δ203-293), C-terminal His6-tag (protein)
chain: B1 chain with A1S
modifications: C-terminal His6-tag; M. jannaschii Adriase without OB, with C-terminal His-tag
ligase activity (fluorescent ligation product) [5]: still catalytically active

B7: 428-57: M. jannaschii Adriase without the insertion element that distinguishes Adriase from proteasome subunits, C-terminal His6 (protein)
chain: SLIICYYGKNGAVIGGDRRQIFFRGSGKIIIEDDREKVRKISDSVVCGEVRSLGIDAKRRRVYATKGKCAIVDILNDTVTNQTIKEGFGIVVLGNRFLKKKAEEELKRTAKLFPMMPIQQIEDAIKEIFEKLKWHPTVSKEYDIYSVNKYEKNFEEVIKKDIESLFKYREQLRKQLIDFGKVMSIVNKIVKNGEIGVIKDGKLHLYDDYIAIDKIDPNPKVFKVVDVEGNFKDGDIVVIENGDMKIKGTNEKVTTKYIIIHKGSHHHHHH
modifications: C-terminal His6; M. jannaschii Adriase 28-57, C-terminal His6
ligase activity (fluorescent ligation product) [5]: abolishes ligase activity

B8: SrtA: Staphylococcus aureus Sortase A without N-terminal membrane anchor (residues 1-59), N-terminal His6-tag (protein, listed as Staphylococcus aureus)
chain: MRGSHHHHHHGSQAKPQIPKDKSKVAGYIEIPDADIKEPVYPGPATPEQLNRGVSFAEENESLDDQNISIAGHTFIDRPNYQFTNLKAAKKGSMVYFKVGNETRKYKMTSIRDVKPTDVEVLDEQKGKDKQLTLITCDDYNEKTGVWEKRKIFVATEVK
modifications: N-terminal His6-tag; His6-SrtA 1-59
notes: Staphylococcus aureus Sortase A without N-terminal membrane anchor (residues 1-59), N-terminal His6-tag
Kcat Ligation/Kcat Hydrolysis [9]: ≈ 3.3 | Km ([10]; primary substrate used in excess, read-out: KM for the secondary substrate): 0.196 mM | Km ([10]; secondary substrate used in excess, read-out: KM for the primary substrate): 7.33 mM | ligase activity at low substrate concentrations [11]: only spurious ligase activity

B9: SrtA5* (protein, listed as Staphylococcus aureus)
chain: MQAKPQIPKDKSKVAGYIEIPDADIKEPVYPGPATREQLNRGVSFAEENESLDDQNISIAGHTFIDRPNYQFTNLKAAKKGSMVYFKVGNETRKYKMTSIRNVKPTAVEVLDEQKGKDKQLTLITCDDYNEETGVWETRKIFVATEVKLEHHHHHH
modifications: C-terminal His-tag; SrtA5* delta 1-59 with C-terminal His-tag
increased rates compared to the wild type enzyme ([10]; Chen (2011)): up to 120 × | Km ([10]; Chen (2011), read-out: KM GGG): 4.7 mM | Km ([10]; Chen (2011), read-out: KM LPETG): 0.17 mM | ligase activity at low substrate concentrations [11]: only spurious ligase activity
